# Experimental data as given in patent US11142548B2, “Agents that activate CD47 and their use in the treatment of inflammation” (SORBONNE UNIVERSITE, priority 2016, dated 2021).
# What was measured:
# HTRA1 = biological target: T1, HTRA1 (Homo sapiens, UniProt Q92743); experiment: HTRA1 cleavage sites of TSP1 by LC-MS/MS; assay type: biochemical; conditions: post-digestion fragments
# T1 construct: purchased R & D
# Experimental: Proteins were submitted to reduction by incubation with 5 mM dithiotreitol in 50 mM ammonium bicarbonate (AmBic) for 30 min at 37° C., then alkylation with 15 mM iodoacetamide in 50 mM AmBic for 30 min, RT. Tryptic digestion was performed with a protein/enzyme ratio of 25/1 at 37° C. overnight in 50 mM AmBic.
# Peptide mixtures were supplemented with formic acid to a final concentration of 0.1% and analyzed on a U3000 nanoLC (Thermo) coupled to an HCTultra ion trap (Bruker). Peptides were concentrated and desalted for 5 min on a precolumm RP-C18 (5 mm, 300 μm i.d., 100 Å, Thermo) with a mobile phase A (2% ACN/0.1% formic acid) at a flow rate of 20 μL/min then separated on an analytical column RP-C18 (15 cm, 75 μm i.d., 100 Å, Dionex) at a flow rate of 300 nL/min. Elution gradient was run from 2% to 10% of solvent B (95% ACN/0.1% formic acid) in 10 min then 10% to 35% B in 60 min and 35% to 50% B in 10 min. The ion trap was used in the positive mode with the selection of 8 precursors from each MS spectrum for fragmentation by collision induced dissociation (CID). […]
# Tryptic peptides were also analyzed by MALDI-TOF MS on an Autoflex speed (Bruker) in positive reflectron mode in the mass range 700-4000 m/z using α-Cyano-4-hydroxycinnamic acid as the matrix (0.9 mg/mL CHCA in 85% CAN, 0.1% TFA, 10 mM ammonium phosphate). […]
# subretinal IBA-1+ MPs = experiment: Laser-injury model in Cx3cr1GFP/GFP mice; assay type: in vivo, mouse; conditions: 2 μl intravitreal at day 4 and day 7, day 10, vs PBS or 4NGG
# Experimental: Laser-coagulations were performed with a 532 nm ophtalmological laser mounted on an operating microscope (Vitra Laser, 532 nm, 450 mW, 50 ms, and 250 μm): Intravitreal injections of 2 μl of HTRA1 and/or TSP1 were performed using glass capillaries (Eppendorf) and a micro injector. The 2 μl injection solution contained 50 μg/ml TSP1 and HTRA1, corresponding to an intraocular concentration of 5 μg/ml of each protein assuming their dilution by approximately 1/10th in the intra-ocular volume. […] A volume of 2 μl of a 100 μM solution of either PBS, recombinant TSP1 (10 μg/ml), the 4NGG control peptide or the CD47-activating peptide PKT16 (200 μM) was injected at day 4 (when MP infiltration is maximal) and day 7 after the injury and evaluated subretinal inflammation on flatmounted RPE/choroidal flatmounts at day 10.
# Eyes were enucleated, fixed in 4% PFA 30 minutes and sectioned at the limbus; the cornea and lens were discarded. […] Choroids and retinas were flatmounted and viewed with a fluorescence microscope DM5500B (Leica). IBA-1+ cells were counted on whole RPE/choroidal flatmounts and on the outer segment side of the retina. […]
# [1] = system: recruited monocyte-derived inflammatory macrophages (recMφ); experiment: Thioglycollate-induced peritonitis; assay type: in vivo, mouse; conditions: single intra-peritoneal injection at day 1, observed at day 2
# Experimental: Mouse peritoneal exudate cells (PECs) were elicited by i.p. injection of 0,5 ml 3% thioglycollate (T9032, Sigma) into 10 weeks old male C57BL/6J and Cd47^−/− mice. After 1 day, PECs were isolated by flushing of the peritoneum with ice-cold PBS, Mφs were negatively selected by magnetic sorting following the manufacturers protocol (EasySep Mouse Monocyte Enrichment Kit, Stemcell Technologies), resuspended in X-VIVO 15 medium (Lonza), and plated in Lab-Tek® Chamber Slide™ (Nunc®).
# To test whether CD47 influences inflammation resolution in other pathological contexts, a model of acute thioglycollate-induced peritonitis was used, characterized by an early accumulation of neutrophils, followed by recruited monocyte-derived inflammatory macrophages (recMφ), both experiencing an apoptosis-driven elimination at different kinetics (Gautier et al., Blood. 2013, 122:2714-2722).
# CD47 = CD47 (Homo sapiens, UniProt Q08722); conditions: comparison in words, no test described; cited from earlier work
# CD47, sequence (Q08722 19-323, species assumed): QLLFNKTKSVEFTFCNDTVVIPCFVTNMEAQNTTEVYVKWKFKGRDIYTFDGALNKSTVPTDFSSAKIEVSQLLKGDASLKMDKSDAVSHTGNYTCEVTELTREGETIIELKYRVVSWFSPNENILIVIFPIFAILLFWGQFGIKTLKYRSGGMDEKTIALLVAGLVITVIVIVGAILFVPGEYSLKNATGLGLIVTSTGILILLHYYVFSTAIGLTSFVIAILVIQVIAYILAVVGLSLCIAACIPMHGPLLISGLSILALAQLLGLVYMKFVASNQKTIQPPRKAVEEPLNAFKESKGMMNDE
# T1 sequence (Q92743 23-480): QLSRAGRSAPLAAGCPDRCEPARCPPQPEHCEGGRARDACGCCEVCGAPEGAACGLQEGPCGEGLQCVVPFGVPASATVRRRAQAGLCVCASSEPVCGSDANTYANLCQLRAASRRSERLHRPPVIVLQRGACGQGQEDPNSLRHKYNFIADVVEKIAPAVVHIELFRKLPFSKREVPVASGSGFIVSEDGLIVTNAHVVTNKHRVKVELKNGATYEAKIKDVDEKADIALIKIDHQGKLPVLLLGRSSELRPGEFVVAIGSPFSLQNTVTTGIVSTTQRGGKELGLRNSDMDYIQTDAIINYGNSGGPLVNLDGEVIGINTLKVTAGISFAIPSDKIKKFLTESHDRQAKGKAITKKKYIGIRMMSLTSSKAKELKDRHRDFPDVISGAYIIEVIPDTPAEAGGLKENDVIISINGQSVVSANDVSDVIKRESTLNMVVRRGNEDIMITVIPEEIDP
substance,measurement,setting,value
"recombinant TSP1: recombinant human TSP1 (R&D Systems), natural ligand and agonist of CD47",distinct sites proteolyzed by HTRA1,HTRA1,5 sites
same,elimination of subretinal IBA-1+ MPs adjacent to the laser impact,subretinal IBA-1+ MPs,eliminated significantly more efficiently
same,elimination of recMφs,[1],significantly accelerated the elimination
same,half maximal effective concentration (EC50) relative to CD47-activating peptides or TSP2,CD47,much lower
